Results: publication PMC3565348, “Modeling of Anopheles minimus Mosquito NADPH-Cytochrome P450 Oxidoreductase (CYPOR) and Mutagenesis Analysis” (International Journal of Molecular Sciences, 2013)

Key:
[1] = test system: NC(=O)C1=CN([C@@H]2O[C@H](COP(=O)(O)OP(=O)(O)OC[C@H]3O[C@@H](n4cnc5c(N)ncnc54)[C@H](OP(=O)(O)O)[C@@H]3O)[C@@H](O)[C@H]2O)C=CC1; assay: purified protein; format: biochemical, Anopheles minimus; settings: 0.1 M Tris-Cl pH 7.5, 25 °C, co-substrate cytochrome c, extra flavins added
[2] = test system: T1, CYP6AA3 reconstituted with flAnCYPOR; assay: benzyloxyresorufin O-dealkylation, fluorescence of resorufin, microsomes + purified CYPOR; format: biochemical, Anopheles minimus; settings: 50 mM Tris-HCl pH 7.5; wild-type flAnCYPOR; apparent Km; read-out: CYP3AA3-mediated BROD activity (pmole resorufin produced/min/pmol P450) ^a / Km
T1 construct: CYP6AA3 in Sf9 baculovirus microsomes; with NADPH--cytochrome P450 reductase

[3] = test system: T2, CYP6AA3 reconstituted with rat CYPOR; assay: as above; format: biochemical, Anopheles minimus; settings: 50 mM Tris-HCl pH 7.5; rat CYPOR as redox partner; apparent Km; read-out: CYP3AA3-mediated BROD activity (pmole resorufin produced/min/pmol P450) ^a / Km
T2 construct: CYP6AA3 in Sf9 baculovirus microsomes; purified rat CYPOR (pIN-rat CYPOR, E. coli C43 (DE3), Ni-NTA) added, ratio 3:1; with NADPH--cytochrome P450 reductase (Rattus norvegicus)

Δ55AnCYPOR = molecular target: T3, Δ55AnCYPOR (Anopheles minimus, UniProt A4ZIT2); assay: flavin content of purified protein, fluorometric; format: binding; settings: co-purified flavin; no affinity constant
T3 construct: soluble form lacking the N-terminal membrane region (Δ55), pET28a vector, expressed in E. coli BL21 (DE3), purified
T3 sequence (A4ZIT2 56-679): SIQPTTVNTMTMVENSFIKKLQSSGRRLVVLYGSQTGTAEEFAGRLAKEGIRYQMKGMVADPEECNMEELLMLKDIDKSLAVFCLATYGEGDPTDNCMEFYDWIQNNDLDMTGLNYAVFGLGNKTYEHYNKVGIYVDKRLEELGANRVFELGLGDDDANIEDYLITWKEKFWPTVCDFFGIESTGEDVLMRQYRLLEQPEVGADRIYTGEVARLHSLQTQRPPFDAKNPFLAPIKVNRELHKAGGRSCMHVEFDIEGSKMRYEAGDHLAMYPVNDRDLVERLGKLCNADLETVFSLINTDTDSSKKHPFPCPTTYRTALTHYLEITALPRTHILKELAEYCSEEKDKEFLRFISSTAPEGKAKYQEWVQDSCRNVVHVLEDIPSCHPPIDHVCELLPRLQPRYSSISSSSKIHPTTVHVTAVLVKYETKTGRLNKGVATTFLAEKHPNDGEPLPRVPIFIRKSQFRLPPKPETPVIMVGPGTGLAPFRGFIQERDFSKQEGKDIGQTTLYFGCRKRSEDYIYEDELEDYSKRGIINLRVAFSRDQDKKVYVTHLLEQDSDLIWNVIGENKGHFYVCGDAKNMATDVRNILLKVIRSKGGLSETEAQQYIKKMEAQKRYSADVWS
From the text: flavin content of purified protein, fluorometric on Δ55AnCYPOR

purified protein = substrate: NC(=O)C1=CN([C@@H]2O[C@H](COP(=O)(O)OP(=O)(O)OC[C@H]3O[C@@H](n4cnc5c(N)ncnc54)[C@H](OP(=O)(O)O)[C@@H]3O)[C@@H](O)[C@H]2O)C=CC1; assay: purified protein; settings: 0.1 M Tris-Cl pH 7.5, 25 °C, co-substrate cytochrome c, extra flavins added

Δ55AnCYPOR (Anopheles minimus; L219F/L86F)
Km [1]: 6.49 ± 1.19 µM

Δ55AnCYPOR (Anopheles minimus; L219F/L86F/W678A)
Km [1]: 3.34 ± 0.83 µM

O=c1ccc2nc3ccc(OCc4ccccc4)cc3oc-2c1 [benzyloxyresorufin]
Km [2]: 1.9 ± 0.61 µM | Km [3]: 1.69 ± 0.24 µM

Δ55AnCYPOR (Anopheles minimus; C427R/L219F/L86F)
Km [1]: 7.02 ± 1.75 µM

Δ55AnCYPOR (Anopheles minimus; L219F/L86F/W678H)
Km [1]: 1.91 ± 0.44 µM

Cc1cc2nc3c(=O)[nH]c(=O)nc-3n(C[C@H](O)[C@H](O)[C@H](O)COP(=O)(O)OP(=O)(O)OC[C@H]3O[C@@H](n4cnc5c(N)ncnc54)[C@H](O)[C@@H]3O)c2cc1C [FAD]
FAD ^a (Δ55AnCYPOR): 0.64 ± 0.03 mol/mol

Cc1cc2nc3c(=O)[nH]c(=O)nc-3n(C[C@H](O)[C@H](O)[C@H](O)COP(=O)(O)O)c2cc1C [FMN]
FMN ^a (Δ55AnCYPOR): 0.52 ± 0.01 mol/mol

B1: Δ55AnCYPOR (Anopheles minimus) (protein)
chain: SIQPTTVNTMTMVENSFIKKLQSSGRRLVVLYGSQTGTAEEFAGRLAKEGIRYQMKGMVADPEECNMEELLMLKDIDKSLAVFCLATYGEGDPTDNCMEFYDWIQNNDLDMTGLNYAVFGLGNKTYEHYNKVGIYVDKRLEELGANRVFELGLGDDDANIEDYLITWKEKFWPTVCDFFGIESTGEDVLMRQYRLLEQPEVGADRIYTGEVARLHSLQTQRPPFDAKNPFLAPIKVNRELHKAGGRSCMHVEFDIEGSKMRYEAGDHLAMYPVNDRDLVERLGKLCNADLETVFSLINTDTDSSKKHPFPCPTTYRTALTHYLEITALPRTHILKELAEYCSEEKDKEFLRFISSTAPEGKAKYQEWVQDSCRNVVHVLEDIPSCHPPIDHVCELLPRLQPRYSSISSSSKIHPTTVHVTAVLVKYETKTGRLNKGVATTFLAEKHPNDGEPLPRVPIFIRKSQFRLPPKPETPVIMVGPGTGLAPFRGFIQERDFSKQEGKDIGQTTLYFGCRKRSEDYIYEDELEDYSKRGIINLRVAFSRDQDKKVYVTHLLEQDSDLIWNVIGENKGHFYVCGDAKNMATDVRNILLKVIRSKGGLSETEAQQYIKKMEAQKRYSADVWS
Km (purified protein): 9.61 ± 0.30 µM
